Measurements taken from PMC3536758.

Target: T1, MBP-ComKBco (Bacillus coagulans DSM 1) (UniProt K4MVI2)
T1 sequence: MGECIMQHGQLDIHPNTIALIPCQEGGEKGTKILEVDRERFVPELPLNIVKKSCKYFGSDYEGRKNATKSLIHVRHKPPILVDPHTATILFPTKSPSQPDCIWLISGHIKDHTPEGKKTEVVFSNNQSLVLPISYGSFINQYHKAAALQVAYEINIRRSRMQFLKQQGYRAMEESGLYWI
Assay: EMSA
Conditions: EMSA: binding buffer (composition not given) with poly(dI-dC), premixed on ice, 20 min at 30 C; 6% polyacrylamide gel in 1x TBE, 90 V, 60 min; pH and salt not …

In the case of “ACGGGTACCATTTGCCGGAAATCGACGTGCCGGCAGCAGGACATAAAAGTGACCCGGTCGCAATAAAGGGGCAATAAGTTTTCGGCATGTTCATCCTTGCCATTACATATGCTTAATATCGCCCGTTGCTTGCCGGTAGCGAACCAAGAAAATACCATATGCTGAAAGATCAGAGGGATCAAACATGCATGGATTATGGACAGCTTATTTTGCGGGGCCCCGT (double strand) [comCBco promoter]”, the binding is reported as “binds more weakly”.
